Assay results: IntAct's records for PubMed 17127621

B1: Basigin (Homo sapiens), P35613 (parent)
chain: MAAALFVLLGFALLGTHGASGAAGFVQAPLSQQRWVGGSVELHCEAVGSPVPEIQWWFEGQGPNDTCSQLWDGARLDRVHIHATYHQHAASTISIDTLVEEDTGTYECRASNDPDRNHLTRAPRVKWVRAQAVVLVLEPGTVFTTVEDLGSKILLTCSLNDSATEVTGHRWLKGGVVLKEDALPGQKTEFKVDSDDQWGEYSCVFLPEPMGTANIQLHGPPRVKAVKSSEHINEGETAMLVCKSESVPPVTDWAWYKITDSEDKALMNGSESRFFVSSSQGRSELHIENLNMEADPGQYRCNGTSSKGSDQAIITLRVRSHLAALWPFLGIVAEVLVLVTIIFIYEKRRKPEDVLDDDDAGSAPLKSSGQHQNDKGKNVRQRNSS
partner: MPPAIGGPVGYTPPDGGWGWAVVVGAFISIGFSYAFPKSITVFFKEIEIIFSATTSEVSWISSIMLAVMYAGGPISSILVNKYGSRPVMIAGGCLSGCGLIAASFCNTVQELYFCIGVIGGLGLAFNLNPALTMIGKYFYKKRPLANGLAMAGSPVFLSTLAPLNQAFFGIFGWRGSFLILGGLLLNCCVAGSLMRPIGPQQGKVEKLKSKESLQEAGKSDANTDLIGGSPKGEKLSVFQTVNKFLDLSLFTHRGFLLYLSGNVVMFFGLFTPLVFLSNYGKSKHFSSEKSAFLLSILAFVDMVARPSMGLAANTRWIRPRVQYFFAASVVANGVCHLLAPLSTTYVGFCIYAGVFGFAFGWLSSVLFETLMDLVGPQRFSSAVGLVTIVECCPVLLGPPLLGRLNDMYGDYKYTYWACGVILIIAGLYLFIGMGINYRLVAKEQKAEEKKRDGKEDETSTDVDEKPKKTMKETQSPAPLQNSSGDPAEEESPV
B2: Monocarboxylate transporter 1 (Rattus norvegicus (Rat)), P53987 (parent)
chain: B1 partner

Columns and labels:
[1] = variants of: B1; conditions: with mot1_rat Slc16a1, P53987
[2] = variants of: B1; conditions: with mot1_rat Slc16a1, P53987; remark: listed apart in the source
[3] = variants of: B2; conditions: with basi_human BSG
[4] = variants of: B2; conditions: with basi_human BSG; remark: listed apart in the source

effect of a mutation on the interaction [1]	effect of a mutation on the interaction [2]	effect of a mutation on the interaction [3]	effect of a mutation on the interaction [4]	Variant
decreasing interaction strength	with no effect			MAAALFVLLGFALLGTHGASGAAGFVQAPLSQQRWVGGSVELHCEAVGSPVPEIQWWFEGQGPNDTCSQLWDGARLDRVHIHATYHQHAASTISIDTLVEEDTGTYECRASNDPDRNHLTRAPRVKWVRAQAVVLVLEPGTVFTTVEDLGSKILLTCSLNDSATEVTGHRWLKGGVVLKEDALPGQKTEFKVDSDDQWGEYSCVFLPEPMGTANIQLHGPPRVKAVKSSEHINEGETAMLVCKSESVPPVTDWAWYKITDSEDKALMNGSESRFFVSSSQGRSELHIENLNMEADPGQYRCNGTSSKGSDQAIITLRVRSHLAALWPFLGIVAQVLVLVTIIFIYEKRRKPEDVLDDDDAGSAPLKSSGQHQNDKGKNVRQRNSS [E334Q]
decreasing interaction strength				MAAALFVLLGFALLGTHGASGAAGFVQAPLSQQRWVGGSVELHCEAVGSPVPEIQWWFEGQGPNDTCSQLWDGARLDRVHIHATYHQHAASTISIDTLVEEDTGTYECRASNDPDRNHLTRAPRVKWVRAQAVVLVLEPGTVFTTVEDLGSKILLTCSLNDSATEVTGHRWLKGGVVLKEDALPGQKTEFKVDSDDQWGEYSCVFLPEPMGTANIQLHGPPRVKAVKSSEHINEGETAMLVCKSESVPPVTDWAWYKITDSEDKALMNGSESRFFVSSSQGRSELHIENLNMEADPGQYRCNGTSSKGSDQAIITLRVRSHLAALWPFLGIVARVLVLVTIIFIYEKRRKPEDVLDDDDAGSAPLKSSGQHQNDKGKNVRQRNSS [E334R]
		disrupting interaction strength		MPPAIGGPVGYTPPDGGWGWAVVVGAFISIGFSYAFPKSITVFFKEIEIIFSATTSEVSWISSIMLAVMYAGGPISSILVNKYGSRPVMIAGGCLSGCGLIAASFCNTVQELYFCIGVIGGLGLAFNLNPALTMIGKYFYKKRPLANGLAMAGSPVFLSTLAPLNQAFFGIFGWRGSFLILGGLLLNCCVAGSLMEPIGPQQGKVEKLKSKESLQEAGKSDANTDLIGGSPKGEKLSVFQTVNKFLDLSLFTHRGFLLYLSGNVVMFFGLFTPLVFLSNYGKSKHFSSEKSAFLLSILAFVDMVARPSMGLAANTRWIRPRVQYFFAASVVANGVCHLLAPLSTTYVGFCIYAGVFGFAFGWLSSVLFETLMDLVGPQRFSSAVGLVTIVECCPVLLGPPLLGRLNDMYGDYKYTYWACGVILIIAGLYLFIGMGINYRLVAKEQKAEEKKRDGKEDETSTDVDEKPKKTMKETQSPAPLQNSSGDPAEEESPV [R196E]
		with no effect	decreasing interaction strength	MPPAIGGPVGYTPPDGGWGWAVVVGAFISIGFSYAFPKSITVFFKEIEIIFSATTSEVSWISSIMLAVMYAGGPISSILVNKYGSQPVMIAGGCLSGCGLIAASFCNTVQELYFCIGVIGGLGLAFNLNPALTMIGKYFYKKRPLANGLAMAGSPVFLSTLAPLNQAFFGIFGWRGSFLILGGLLLNCCVAGSLMRPIGPQQGKVEKLKSKESLQEAGKSDANTDLIGGSPKGEKLSVFQTVNKFLDLSLFTHRGFLLYLSGNVVMFFGLFTPLVFLSNYGKSKHFSSEKSAFLLSILAFVDMVARPSMGLAANTRWIRPRVQYFFAASVVANGVCHLLAPLSTTYVGFCIYAGVFGFAFGWLSSVLFETLMDLVGPQRFSSAVGLVTIVECCPVLLGPPLLGRLNDMYGDYKYTYWACGVILIIAGLYLFIGMGINYRLVAKEQKAEEKKRDGKEDETSTDVDEKPKKTMKETQSPAPLQNSSGDPAEEESPV [R86Q]
		with no effect	decreasing interaction strength	MPPAIGGPVGYTPPDGGWGWAVVVGAFISIGFSYAFPKSITVFFKEIEIIFSATTSEVSWISSIMLAVMYAGGPISSILVNKYGSEPVMIAGGCLSGCGLIAASFCNTVQELYFCIGVIGGLGLAFNLNPALTMIGKYFYKKRPLANGLAMAGSPVFLSTLAPLNQAFFGIFGWRGSFLILGGLLLNCCVAGSLMRPIGPQQGKVEKLKSKESLQEAGKSDANTDLIGGSPKGEKLSVFQTVNKFLDLSLFTHRGFLLYLSGNVVMFFGLFTPLVFLSNYGKSKHFSSEKSAFLLSILAFVDMVARPSMGLAANTRWIRPRVQYFFAASVVANGVCHLLAPLSTTYVGFCIYAGVFGFAFGWLSSVLFETLMDLVGPQRFSSAVGLVTIVECCPVLLGPPLLGRLNDMYGDYKYTYWACGVILIIAGLYLFIGMGINYRLVAKEQKAEEKKRDGKEDETSTDVDEKPKKTMKETQSPAPLQNSSGDPAEEESPV [R86E]
